Test results: patent publication US20220153853A1 (JIANGSU HENGRUI MEDICINE, published 2022)
Where two headings read alike, the source gives them in different places.

Key:
[1] = target: T1, human GCGR (full-length glucagon receptor of 477 amino acids) (human, UniProt P47871 26-477); test: cell-based or functional assay
Mouse GCGR [2] = target: T2, Mouse GCGR (mouse, UniProt Q61606 27-485); test: cell-based or functional assay
Cynomolgus monkey GCGR [3] = target: T3, Cynomolgus monkey GCGR (cynomolgus monkey); test: cell ELISA on fixed CHO cells overexpressing GCGR
T3 construct: whole, on cells; also called cynomolgus GCGR
Method: (§1) The expression levels of GCGR were detected after two weeks of pressure screening, After the GCGR-overexpressing cells were fixed to the bottom of 96-well plate, the antibodies were added and the signal strength was used to determine the binding activity of the antibody to GCGR overexpressing CHO cells. The binding abilities of the antibody to the three species of GCGRs were detected with the same binding assay. As an example, the binding of the GCGR antibodies to human GCGR was detected by an assay specifically described as follows:
(§2) The cells were seeded in a 96-well plate at a density of 0.9-1.0×10⁶/ml, 100 μl/well and cultured overnight. The supernatant was discarded, the plate was washed three times with PBS, 100 μl/well of cell immune fixed solution (Beyotime, Cat No. P0098) was added and fixed for an hour at room temperature, and washed four times with PBS. The liquid was discarded, 200 μl/well blocking solution (5% skim milk (BD skim milk, Cat Wo. 232100) diluted with PBS) was added, and incubated in an incubator at 37° C. for 3 hours for blocking. After the blocking was finished, the blocking solution was discarded, the plate was washed 3 times with PBST buffer (PBS comprising 0.05% tweenW-20, pH7.4), 50 μl/well of various concentrations of each of the test antibodies (antibodies purified from hybridoma, chimeric antibodies or humanized antibodies) diluted with sample dilution solution were added, and incubated in an incubator at 37° C. for 2 hours. After the incubation was finished, the plate was washed 3 times with PBST, 50 μl/well of HRP-labeled goat anti-mouse secondary antibody (JacksoW ImmuWo Research, Cat No. 115-035-003) or goat anti-human secondary antibody (JacksoW ImmuWo Research, Cat Wo. 109-035-003) diluted with sample dilution solution was added, and incubated at 37° C. for 1 hour. The plate was washed 3 times with PBST, 50 μl/well of TMB chromogenic substrate (KPL, Cat Wo. 52-00-03) was added, incubated at room temperature for 10 min, and 50 μl/well of 1M H₂SO4 was added to stop the reaction. The absorbance value was read by a microplate reader (Thermo scientific Multiskan MK3) at a wavelength of 450 nm, and the data was analyzed with GraphPad Prism 5. The binding of GCGR chimeric antibodies to GCGR-overepressing CHO cells was calculated as EC50 value.

[4] = target: T1, human GCGR (full-length glucagon …); test: cell ELISA on fixed CHO cells overexpressing GCGR
Method: as §1, §2

Mouse GCGR [5] = target: T2, Mouse GCGR; test: cell ELISA on fixed CHO cells overexpressing GCGR
Method: as §1, §2

[6] = target: T1, human GCGR (full-length glucagon …); test: cell-based or functional assay; remark: listed apart in the source
[7] = target: T1, human GCGR (full-length glucagon …); test: competitive cell ELISA on GCGR-overexpressing CHO cells, biotin-labeled against unlabeled antibody; competitor ch1808
Description: (§3) The GCGR epitopes bound by GCGR antibodies were classified by ELISA assay, in which the competitive binding of the biotin-labeled antibodies with different concentrations of the standard antibody to GCGR-overexpressing CHO cells was detected. The method for preparing the cell plate was the same as that of Test Example 1. The following specific procedures are as follows: The antibody was labelled according to the biotin labeling kit instructions (Dojindo
(§4) Molecular Technologies, Inc. LK03). The unlabeled test antibody was diluted to a range of concentrations with sample dilution solution in a 96-well cell plate, 50 μl/well, and incubated at 37° C. for 2 hours. After the incubation was finished, the plate was washed 3 times with PBST, 50 μl/well of biotin-labeled antibody diluted with sample dilution solution was added, at a concentration of 0.1 μg/ml, incubated at 37° C. for 2 hours, the plate was washed 3 times with PBST, and HRP-labeled goat-anti-human secondary antibody (JacksoW ImmuWo Research, Cat Wo. 109-035-003) was added, and incubated at 37° C. for 1 hour. The plate was washed 3 times with PBST, 50 μl/well of TMB chromogenic substrate (KPL, Cat No. 52-00-03) was added, incubated at room temperature for 10 min, and 50 μl/well of 1M H₂SO₄ was added to stop the reaction. The absorbance value was read by a microplate reader (Thermo scientific Multiskan MK3) at a wavelength of 450 nm, and the data was analyzed with GraphPad Prism 5.

[8] = target: T1, human GCGR (full-length glucagon …); test: competitive cell ELISA on GCGR-overexpressing CHO cells, biotin-labeled against unlabeled antibody; competitor hu1810-12
Description: as §3, §4

[9] = target: T1, human GCGR (full-length glucagon …); test: competitive cell ELISA on GCGR-overexpressing CHO cells, biotin-labeled against unlabeled antibody; competitor hu1803-9
Description: as §3, §4

Cynomolgus monkey GCGR [10] = target: T3, Cynomolgus monkey GCGR; test: cell-based or functional assay
Mouse GCGR [11] = target: T2, Mouse GCGR; test: cell-based or functional assay; remark: listed apart in the source
[12] = target: T1, human GCGR (full-length glucagon …); test: cell-based or functional assay; remark: listed apart in the source

T2 sequence (Q61606 27-485): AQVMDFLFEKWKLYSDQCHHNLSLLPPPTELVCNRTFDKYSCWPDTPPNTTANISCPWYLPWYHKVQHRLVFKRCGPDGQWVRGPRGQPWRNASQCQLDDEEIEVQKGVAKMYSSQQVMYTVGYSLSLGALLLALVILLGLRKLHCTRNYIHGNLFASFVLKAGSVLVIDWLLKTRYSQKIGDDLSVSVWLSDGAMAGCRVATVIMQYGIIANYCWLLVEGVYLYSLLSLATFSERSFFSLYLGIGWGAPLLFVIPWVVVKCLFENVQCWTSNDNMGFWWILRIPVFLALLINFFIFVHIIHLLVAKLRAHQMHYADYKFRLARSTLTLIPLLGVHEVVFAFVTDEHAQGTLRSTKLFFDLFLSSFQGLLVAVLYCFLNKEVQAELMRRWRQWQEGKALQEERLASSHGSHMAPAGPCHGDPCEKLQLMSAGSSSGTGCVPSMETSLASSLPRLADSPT
T1 sequence (P47871 26-477 limits assumed): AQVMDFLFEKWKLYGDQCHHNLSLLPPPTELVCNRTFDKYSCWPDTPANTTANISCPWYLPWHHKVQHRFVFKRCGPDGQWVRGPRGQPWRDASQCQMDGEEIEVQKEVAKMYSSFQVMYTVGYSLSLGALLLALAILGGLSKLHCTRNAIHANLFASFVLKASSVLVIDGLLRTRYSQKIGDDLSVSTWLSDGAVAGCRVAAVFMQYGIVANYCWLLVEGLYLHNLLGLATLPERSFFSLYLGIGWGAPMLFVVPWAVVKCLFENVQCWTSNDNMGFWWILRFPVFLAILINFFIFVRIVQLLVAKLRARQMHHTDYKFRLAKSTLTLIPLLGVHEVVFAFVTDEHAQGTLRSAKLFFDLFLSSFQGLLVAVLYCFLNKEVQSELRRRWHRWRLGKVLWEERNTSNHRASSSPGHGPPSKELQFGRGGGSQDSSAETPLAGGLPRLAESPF

| Binder | IC50 [1] [nM] | Imax [1] [%] | IC50 (Mouse GCGR [2]) [nM] | Imax (%) (Mouse GCGR [2]) | EC50 (Cynomolgus monkey GCGR [3]) [nM] | EC50 [4] [nM] | EC50 (Mouse GCGR [5]) [nM] | IC50 [6] [nM] | Imax [6] [%] | competition efficiency IC % [7] [%] | competition efficiency IC % [8] [%] | competition efficiency IC % [9] [%] | IC50 (Cynomolgus monkey GCGR [10]) [nM] | Imax (%) (Cynomolgus monkey GCGR [10]) | IC50 (Mouse GCGR [11]) [nM] | Imax (%) (Mouse GCGR [11]) | IC50 [12] [nM] | Imax (%) [12] [%] |
| --- | --- | --- | --- | --- | --- | --- | --- | --- | --- | --- | --- | --- | --- | --- | --- | --- | --- | --- |
| ch1822 (antibody, human IgG4 S228P, kappa, F234A L235A, V domains shown, IgG4-AA / kappa chimeric antibody) VH: EVRLVESGGDFVQPGRSVKLSCAASGFTFSNYYMAWVRQAPTKGLEWVGSISTGGVNTYYRDSVKGRFTISRDNAESTLYLQMDSLRSEETATYYCARHTTPDYHYGIYFAMDAWGQGTSVTVSS VL: QVTLTQPKSVSGSLRSTITIPCERSSGDIGESYVNWYQQHLGRPPINVIYADDQRPSEVSDRFSGSIDSSSNSASLTITNLQVDDEADYFCQSYDSSIDIFFGGGTKLTVLR | 62.5 | 59 | 16 | 87 | 0.428 | 0.383 | 0.568 | – | – | – | – | – | – | – | – | – | – | – |
| hu1803-9 (antibody, human IgG4 S228P, kappa, F234A L235A, V domains shown, IgG4-AA / kappa humanized antibody; also called hu1803_VH.1 + hu1803_VL.1B; GCGR monoclonal antibody) VH: EVQLVQSGAEVKKPGASVKVSCKASGYTFTDYWIEWVRQAPGQGLEWMGEILPGSTYTNYNEKFKGRVTMTRDTSTSTVYMELSSLRSEDTAVYYCARGLSTLMAVDYFDYWGQGTTVTVSS VL: DIQMTQSPSSLSASVGDRVTITCRASQDISNYLNWYQQKPGKAVKLLIYYSSTLHSGVPSRFSGSGSGTDYTLTISSLQPEDFATYYCQQTNIFPWTFGGGTKVEIKR | – | – | – | – | – | – | – | 78.4 | 100 | 100 | 100 | 100 | 220 | 100 | 11.2 | 100 | 54 | 100 |
| hu1810-12 (antibody, human IgG4 S228P, kappa, F234A L235A, V domains shown, IgG4-AA / kappa humanized antibody; also called hu1810_VH.1C + hu1810_VL.1B) VH: QVQLVQSGAEVKKPGSSVKVSCKASGGTFSNYAISWVKQAPGQGLEWIGEIYPTSGNTYYNEKFKGKATLTADRSTSTMYMELSSLRSEDTAVYYCASGVITTVVSTDYFDYWGQGTLVTVSS VL: DIQMTQSPSSLSASVGDRVTITCRASLDISNYLNWYQLKPGKAVKLLIYYTSTLHSGVSSRFSGSGSGTEYTLTISSLQPEDFATYYCQQGNMVPYTFGGGTKVEIKR | – | – | – | – | – | – | – | 75.9 | 99.7 | 100 | 100 | 100 | 886 | 99 | 17.5 | 97 | – | – |
| ch1805 (antibody, human IgG4 S228P, kappa, F234A L235A, V domains shown, IgG4-AA / kappa chimeric antibody; also called chimeric antibody of clone 1805) VH: EVQLQQSGPELVKPGASVKIPCKTSGYTFTDYNMDWVKQSHGRSLEWIGSIDPDNGGTIYNQKFKGKATLTVDKSSSTAYMELRSLTSEDTAVYYCTRDYYGSSSWFAYWGQGTLVTVSA VL: DVVMTQSPATLSVTPGDRVSLSCRASQSISDYLHWYQQKSHESPRLLIKYASQSISGIPSRFSGSGSGSDFTLSINSVEPEDVGVYYCQNGHSFPYTFGGGTKLEIKR | 95 | 91 | 18 | 100 | 0.358 | 0.297 | 0.343 | – | – | 100 | 100 | 100 | – | – | – | – | – | – |
| ch1808 (antibody, human IgG4 S228P, kappa, F234A L235A, V domains shown, IgG4-AA / kappa chimeric antibody) VH: QVQLQQSGAELARPGASVKLSCKASGDTFTTNGISWVKQRIGQGLEWIGEIYPRSGNTYYNENFKGKATLTADKSSTTAYMELRRLTSEDSAVYFCARSITSVIGADYFDYWGQGTTLTVSS VL: DIQMTQTTSSLSASLGDRVTISCRASQDISNYLNWYQKKPDGTVKLLIYYSSTLHSGVPSRFSGSGSGTDYSLTISNLEQEDIATYFCQQGNTFPWTFGGGTKLEIKR | 105 | 98 | 26.6 | 100 | 0.536 | 0.677 | 1.02 | – | – | 100 | 54.3 | 46.6 | – | – | – | – | – | – |
